Assays:
olfr62 = assay: CRE-luciferase reporter gene assay, olfr62; type: cell-based, mouse; details: Hana3A cells
Experimental: Four ORs (S6/79, S18, S46 and S50) previously assayed using other techniques (see, e.g., Malnic, B., et al. (1999) Cell 96, 713-723; herein incorporated by reference in its entirety) were tested against an assay panel of aliphatic alcohols, aldehydes and acids and some other odorants. Additionally, five “orphan” class I ORs (MOR23-1, MOR31-4, MOR31-6, MOR32-5 and MOR32-11) whose cognate ligands were unknown were tested. At a suprathreshold concentration of 100 uM, all these ORs were odorant selective, responding to only a small subset of the odorants tested (see FIG. 11A). This specificity was retained at lower, more physiologically relevant concentrations. Many of these ORs responded to odorants present in micromolar concentrations. The cell-surface expression of these ORs by living-cell immunofluorescence were evaluated. Some ORs (S18, MOR31-4, MOR31-6 and MOR32-5) were strongly expressed while other ORs (S6, S50, MOR23-1, MOR32-11) were weakly expressed (see FIG. 12). The present invention is not limited to a particular mechanism. Indeed, an understanding of the mechanism is not necessary to practice the present invention. […] Finally, two additional orphan class II ORs, MOR203-1 and olfr62, were tested against a panel of 139 odorants. […] Olfr62 responded to coumarine and piperonal (see FIG. 11C). […] When parental 293T cells for these ORs were used in this luciferase assay, little or no response to the odorants was observed. The present invention is not limited to a particular mechanism. Indeed, an understanding of the mechanism is not necessary to practice the present invention.
Dual-Glo system (Promega) for luciferase assay was used. CRE-Luciferase (Stratagene) was used to measure the receptor activities. Renilla luciferase driven by constitutively active SV40 promoter (pRL-SV40: Promega) was used as an internal control. Cells were plated on poly-D-lysine coated 96 well plates (BIOCOAT, Beckton Dickinson). After 8 hours (for experiments shown in FIGS. 8B and 8C) or 12 hours (for experiments shown in FIG. 8D and FIG. 11) after transfection, the medium was replaced with CD293 chemically defined medium (Invitrogen) and the plates were incubated for one hour at 37 degrees C. The medium was replaced with 50 ul of odorant solutions dissolved in CD293 and incubated for 10 hours (for experiments shown in FIGS. 8B and 8C) or 4 hours (for experiments shown in FIG. 8D and FIG. 11) at 37 degrees C. The manufacture's protocol for measuring luciferase and Renilla luciferase activities was followed. Luminescence was measured using Wallac Victor 1420 (Perkin-Elmer). Normalized luciferase activity was calculated as [Luc (N)-Luc (0)]/RL (N), where Luc (N)=Luminescent count of a certain well, Luc (0)=Luminescent count without odorant for each OR, and RL (N)=Luminescent count of Renilla Luciferase of each well. For cAMP assays, cells were plated onto 24-well plate. […]. Prism software (Graphpad) was used for data analysis. […]

MOR203-1 = assay: Living-cell staining of cell-surface MOR203-1; type: cell-based, mouse; details: accessory protein co-transfected in 293T cells
Excerpt: After hypothesizing that mammalian ORs require accessory protein(s) for functional cell surface expression, a search was instituted for detecting such molecule(s). Long-SAGE (serial analysis of gene expression) libraries (see, e.g., Saha, S., et al., (2002) Nat Biotechnol 20, 508-512; herein incorporated by reference in its entirety) were constructed from single olfactory neurons as well as neurons from the vomeronasal organ and genes were collected that are expressed by these neurons. To identify candidate genes expressed by the olfactory neurons Digital Differential Display (see, e.g., http://www, followed by, .ncbi.nlm.nih.gov/UniGene/info_ddd.shtml) was also used. Candidate genes were investigated for ORFs that encode membrane associated proteins. Genes were selected with similarities to known chaperones and cloned the cDNAs from olfactory epithelium cDNAs. The mRNA expression of each gene was verified by in situ hybridization. After isolating and subcloning into mammalian expression vectors, each cDNA together with a mouse OR (MOR203-1) tagged with a 20 N-terminal amino acids of rhodopsin (Rho-tag), was transfected into 293T cells. We measured whether these clones had any effect on the cell-surface expression of ORs by staining living cells using antibodies against the Rho-tag (see, e.g., Laird, D. W., and Molday, R. S. (1988) Invest Opthalmol Vis Sci 29, 419-428; herein incorporated by reference in its entirety). When MOR203-1 was transfected alone, antibody staining detected only faint cell-surface expression in less than 1% of the cells. A schematic diagram outlining the screening procedure utilized with the present invention is provided at FIG. 1.
293T cells were maintained in minimal essential medium containing 10% fetal bovine serum (M10). Lipofectamine 2000 (Invitrogen) was used for transfection. In live-cell staining, 16 hours after transfection, cells were incubated in M10 containing anti rhodopsin antibody, 4D2 (see, e.g., Laird, D. W., and Molday, R. S. (1988) Invest Opthalmol V is Sci 29, 419-428; herein incorporated by reference in its entirety) and 15 mM NaN3 at 4 degrees C. for 1 hour. After washing, cells were incubated with Cy3-conjugated anti mouse IgG (Jackson Immunologicals), washed and mounted. For FACS analysis, 4D2 and PE-conjugated anti mouse IgG (Jackson Immunologicals) were used to monitor the Rho tagged receptor expression. Anti HA rabbit antibodies (Sigma) and Alexa 488 conjugated anti rabbit IgG (Molecular Probes) was used to stain the HA-β2 adrenergic receptor. To establish the Hana3a cells, 1 ug/ml of puromycin was used for selection. 96 colonies were picked and assayed using luciferase assay using OREG.

[1] = molecular target: T1, mouse odorant receptor OREG (Mus musculus, UniProt Q920P2); assay: CRE-luciferase reporter gene assay, OREG; type: cell-based; details: 293T cells; compared to OR alone or control pCI
T1 construct: expressed in transfected cells; host or cells: 293T cells (with or without co-transfected REEP1/RTP1/RTP2) and Hana3A cells (293T stably expressing mouse REEP1, RTP1, RTP2, Galpha-olf)
T1 sequence (Q920P2 1-313): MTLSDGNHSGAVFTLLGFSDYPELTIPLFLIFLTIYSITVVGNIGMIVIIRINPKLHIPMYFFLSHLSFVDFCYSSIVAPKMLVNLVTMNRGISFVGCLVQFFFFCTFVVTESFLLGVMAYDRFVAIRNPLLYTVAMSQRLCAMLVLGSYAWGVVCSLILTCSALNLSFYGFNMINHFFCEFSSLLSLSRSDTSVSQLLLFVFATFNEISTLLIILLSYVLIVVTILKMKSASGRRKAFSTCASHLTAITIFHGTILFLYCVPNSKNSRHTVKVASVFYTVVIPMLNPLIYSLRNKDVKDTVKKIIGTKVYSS
Excerpt: Poor odorant evoked signaling activity in heterologous cell culture systems expressing ORs has been attributed to the poor cell surface expression of ORs. The identification of REEP and/or RTP allowed a direct assessment of this issue. A luciferase reporter gene assay was employed in which a cAMP responsive element (CRE) mediated luciferase gene expression (see FIG. 8A). Because OR activation leads to an increase in cAMP, activation of the mouse odorant receptor OREG by its ligand eugenol was measured in the presence and absence of REEP and/or RTP (see, e.g., Kajiya, K., et al. (2001) J Neurosci 21, 6018-6025; Touhara, K., et al., (1999) Proc Natl Acad Sci USA 96, 4040-4045; each herein incorporated by reference in their entireties). As reported previously, eugenol increased levels of OREG dependent luciferase activity (see, e.g., Katada, S., et al. (2003) Biochem Biophys Res Commun 305, 964-969; herein incorporated by reference in its entirety).
To facilitate analysis of odorant-OR interactions, 293T cell lines were established which stably express REEP1, RTP1, RTP2 and Gαolf, the G protein alpha subunit that couples to OR (see, e.g., Belluscio, L., et al. (1998) Neuron 20, 69-81; Jones, D. T., and Reed, R. R. (1989). Science 244, 790-795; each herein incorporated by reference in their entireties). To establish such cells, linearized expression vectors containing mouse REEP1, RTP1, RTP2 and Gαolf ORFs were transfected into 293T cells with PGK-Pac (puromycin resistant gene) (see, e.g., Watanabe, S., et al. (1995) Biochem Biophys Res Commun 213, 130-137; herein incorporated by reference in its entirety). […] Enhanced cell-surface expression was observed when OREG or other ORs were transfected in Hana3A cells and immunostained (see FIG. 10). […] Expression of Gαolf alone in 293T cells had little or no effect on OR activation using this assay.
Dual-Glo system (Promega) for luciferase assay was used. CRE-Luciferase (Stratagene) was used to measure the receptor activities. Renilla luciferase driven by constitutively active SV40 promoter (pRL-SV40: Promega) was used as an internal control. Cells were plated on poly-D-lysine coated 96 well plates (BIOCOAT, Beckton Dickinson). After 8 hours (for experiments shown in FIGS. 8B and 8C) or 12 hours (for experiments shown in FIG. 8D and FIG. 11) after transfection, the medium was replaced with CD293 chemically defined medium (Invitrogen) and the plates were incubated for one hour at 37 degrees C. The medium was replaced with 50 ul of odorant solutions dissolved in CD293 and incubated for 10 hours (for experiments shown in FIGS. 8B and 8C) or 4 hours (for experiments shown in FIG. 8D and FIG. 11) at 37 degrees C. The manufacture's protocol for measuring luciferase and Renilla luciferase activities was followed. Luminescence was measured using Wallac Victor 1420 (Perkin-Elmer). Normalized luciferase activity was calculated as [Luc (N)-Luc (0)]/RL (N), where Luc (N)=Luminescent count of a certain well, Luc (0)=Luminescent count without odorant for each OR, and RL (N)=Luminescent count of Renilla Luciferase of each well. For cAMP assays, cells were plated onto 24-well plate. […]. Prism software (Graphpad) was used for data analysis.

## O=Cc1ccc2c(c1)OCO2 [piperonal, Piperonal]
olfr62
  response of olfr62 to odorant (luciferase): responded

## O=c1ccc2ccccc2o1 [coumarin, Coumarin]
olfr62
  response of olfr62 to odorant (luciferase): responded

## O=C1Cc2ccccc2O1 [2-coumaranone, 2-Coumaranone]
olfr62
  response of olfr62 to odorant (luciferase): preferred ligand

B1: REEP2: other member of the REEP family; murine SEQ ID NO: 22 (protein, listed as Mus musculus)
chain: MVSWIISRLVVLIFGTLYPAYSSYKAVKTKNVKEYVKWMMYWIVFAFFTTAETLTDIILSWFPFYFELKIAFVIWLLSPYTKGSSVLYRKFVHPTLSNKEKEIDEYITQARDKSYETMMRVGKRGLNLAANAAVTAAAKGQGVLSEKLRSFSMQDLTLIRDEDALPLQGPDGRLQPGPVGLLDTIEDLGDEPALSLRSSTSQPDPRTETSEDDLGDKAPKRTKPIKKVPRAEPPASKTLKTRPKKKSSGGGDSA
MOR203-1
  cell surface expression of MOR203-1: not observed

B2: RTP4: other member of the RTP family; murine SEQ ID NO: 36 (protein, listed as Mus musculus)
chain: MLFPDDFSTWEQTFQELMQEEKPGAKWSLHLDKNIVPDGAALGWRQHQQTVGRFQCSRCCRSWTSAQVMILCHMYPDTLKSQGQARMRIFGQKCQKCFGCQFETPKFSTEIIKRILNNLVNYILQRYYGHRKIALTSNASLGEKVTLDGPHDTRNCEACSLNSHGRCALAHKVKPPRSPSPLPNSSSPSKSCPPPPQTRNTDFGNKTLQDFGNRTFQGCREPPQREIEPPLFLFLSIAAFALFSLFTR
[1]
  OREG activity by luciferase, accessory protein co-expressed: did not produce a significant increase
MOR203-1
  cell surface expression of MOR203-1: not observed

B3: RTP2: a close relative of RTP1; murine SEQ ID NO: 34, human SEQ ID NO: 38 (protein, listed as Mus musculus)
chain: MSTSLTTCEWKKVFYEKMEVAKPADSWELIIDPTLKPNELGPGWKQYLEQHASGRFHCSWCWHTWQSANVVILFHMHLDRAQRVGSVRMRVFKQLCYQCGTSRLDESSMLEENIEGLVDNLITSLREQCYDEDGGQYRIHVASRPDSGLHRSEFCEACQEGIVHWKPSEKLLEEDAAYTDASKKKGQAGFISSFFSFRWCLFWGTLCLVIVYLQFFRGRSGFL
[1]
  OREG activity by luciferase, accessory protein co-expressed: enhanced luciferase activities compared to OR alone
MOR203-1
  cell surface expression of MOR203-1: also enhanced cell surface expression

Reference: patent US7838288B2, “Modulators of odorant receptors” (Duke University, priority 2004, dated 2010)
